Source: paper PMC6994259 (Nature, 2020)

T1: Spt7 (S. cerevisiae, UniProt P35177 1-1332)
T1 sequence: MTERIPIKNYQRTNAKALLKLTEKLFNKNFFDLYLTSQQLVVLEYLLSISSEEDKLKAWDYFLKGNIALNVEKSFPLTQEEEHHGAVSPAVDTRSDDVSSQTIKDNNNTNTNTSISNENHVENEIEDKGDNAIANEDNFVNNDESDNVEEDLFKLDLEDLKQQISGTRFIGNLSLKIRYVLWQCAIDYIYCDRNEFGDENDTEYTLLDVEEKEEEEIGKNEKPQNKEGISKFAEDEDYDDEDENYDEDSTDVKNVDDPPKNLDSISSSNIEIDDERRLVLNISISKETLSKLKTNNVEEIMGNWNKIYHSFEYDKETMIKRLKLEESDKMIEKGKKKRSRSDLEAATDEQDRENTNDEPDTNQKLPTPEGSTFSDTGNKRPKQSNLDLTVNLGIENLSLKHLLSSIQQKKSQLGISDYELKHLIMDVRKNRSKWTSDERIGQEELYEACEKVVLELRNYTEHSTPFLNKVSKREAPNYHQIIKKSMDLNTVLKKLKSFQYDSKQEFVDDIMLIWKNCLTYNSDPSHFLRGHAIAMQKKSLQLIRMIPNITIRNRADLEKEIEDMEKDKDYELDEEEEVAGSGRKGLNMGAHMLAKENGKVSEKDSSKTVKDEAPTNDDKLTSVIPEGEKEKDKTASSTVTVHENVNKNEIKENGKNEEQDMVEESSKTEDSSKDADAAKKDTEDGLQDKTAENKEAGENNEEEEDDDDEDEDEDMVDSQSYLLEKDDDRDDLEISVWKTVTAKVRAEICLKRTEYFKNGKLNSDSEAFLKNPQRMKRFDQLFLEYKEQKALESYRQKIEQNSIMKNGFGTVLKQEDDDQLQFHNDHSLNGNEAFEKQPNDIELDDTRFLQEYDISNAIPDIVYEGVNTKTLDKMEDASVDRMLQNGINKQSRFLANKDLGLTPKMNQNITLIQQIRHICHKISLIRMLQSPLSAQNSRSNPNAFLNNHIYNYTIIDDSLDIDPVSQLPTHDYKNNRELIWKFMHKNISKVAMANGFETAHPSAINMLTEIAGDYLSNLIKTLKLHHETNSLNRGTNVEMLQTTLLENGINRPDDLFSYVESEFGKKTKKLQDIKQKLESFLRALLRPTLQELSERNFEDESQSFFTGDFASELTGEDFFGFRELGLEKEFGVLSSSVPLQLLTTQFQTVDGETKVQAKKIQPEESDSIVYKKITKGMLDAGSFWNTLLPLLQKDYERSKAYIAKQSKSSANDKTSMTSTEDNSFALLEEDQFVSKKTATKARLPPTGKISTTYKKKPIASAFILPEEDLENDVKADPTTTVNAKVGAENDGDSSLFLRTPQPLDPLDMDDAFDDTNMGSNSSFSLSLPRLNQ

T2: Sgf73 (S. cerevisiae, UniProt P53165 1-657)
T2 sequence: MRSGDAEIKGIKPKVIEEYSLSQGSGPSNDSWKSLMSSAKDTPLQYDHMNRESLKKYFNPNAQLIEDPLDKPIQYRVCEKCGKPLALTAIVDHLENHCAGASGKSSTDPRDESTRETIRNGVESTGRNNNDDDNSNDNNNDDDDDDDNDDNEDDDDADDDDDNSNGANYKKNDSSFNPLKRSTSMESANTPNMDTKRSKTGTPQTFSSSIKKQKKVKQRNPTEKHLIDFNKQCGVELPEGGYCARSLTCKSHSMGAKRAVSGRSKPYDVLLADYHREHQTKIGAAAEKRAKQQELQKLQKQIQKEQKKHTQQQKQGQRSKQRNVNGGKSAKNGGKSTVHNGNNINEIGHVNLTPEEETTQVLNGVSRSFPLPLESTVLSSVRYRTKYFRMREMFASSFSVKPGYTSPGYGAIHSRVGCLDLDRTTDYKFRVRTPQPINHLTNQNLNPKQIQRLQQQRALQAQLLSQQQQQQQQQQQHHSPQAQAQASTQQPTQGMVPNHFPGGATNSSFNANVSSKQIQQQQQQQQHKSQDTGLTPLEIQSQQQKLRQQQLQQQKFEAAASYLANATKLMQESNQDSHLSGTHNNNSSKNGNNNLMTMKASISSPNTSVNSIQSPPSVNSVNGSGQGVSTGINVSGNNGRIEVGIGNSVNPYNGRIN

B1: Taf6 (natural protein)
chain: MSTQQQSYTIWSPQDTVKDVAESLGLENINDDVLKALAMDVEYRILEIIEQAVKFKRHSKRDVLTTDDVSKALRVLNVEPLYGYYDGSEVNKAVSFSKVNTSGGQSVYYLDEEEVDFDRLINEPLPQVPRLPTFTTHWLAVEGVQPAIIQNPNLNDIRVSQPPFIRGAIVTALNDNSLQTPVTSTTASASVTDTGASQHLSNVKPGQNTEVKPLVKHVLSKELQIYFNKVISTLTAKSQADEAAQHMKQAALTSLRTDSGLHQLVPYFIQFIAEQITQNLSDLQLLTTILEMIYSLLSNTSIFLDPYIHSLMPSILTLLLAKKLGGSPKDDSPQEIHEFLERTNALRDFAASLLDYVLKKFPQAYKSLKPRVTRTLLKTFLDINRVFGTYYGCLKGVSVLEGESIRFFLGNLNNWARLVFNESGITLDNIEEHLNDDSNPTRTKFTKEETQILVDTVISALLVLKKDLPDLYEGKGEKVTDEDKEKLLERCGVTIGFHILKRDDAKELISAIFFGE
B2: Taf5 (natural protein)
chain: MSQKQSTNQNQNGTHQPQPVKNQRTNNAAGANSGQQPQQQSQGQSQQQGRSNGPFSASDLNRIVLEYLNKKGYHRTEAMLRAESGRTLTPQNKQSPANTKTGKFPEQSSIPPNPGKTAKPISNPTNLSSKRDAEGGIVSSGRLEGLNAPENYIRAYSMLKNWVDSSLEIYKPELSYIMYPIFIYLFLNLVAKNPVYARRFFDRFSPDFKDFHGSEINRLFSVNSIDHIKENEVASAFQSHKYRITMSKTTLNLLLYFLNENESIGGSLIISVINQHLDPNIVESVTAREKLADGIKVLSDSENGNGKQNLEMNSVPVKLGPFPKDEEFVKEIETELKIKDDQEKQLNQQTAGDNYSGANNRTLLQEYKAMNNEKFKDNTGDDDKDKIKDKIAKDEEKKESELKVDGEKKDSNLSSPARDILPLPPKTALDLKLEIQKVKESRDAIKLDNLQLALPSVCMYTFQNTNKDMSCLDFSDDCRIAAAGFQDSYIKIWSLDGSSLNNPNIALNNNDKDEDPTCKTLVGHSGTVYSTSFSPDNKYLLSGSEDKTVRLWSMDTHTALVSYKGHNHPVWDVSFSPLGHYFATASHDQTARLWSCDHIYPLRIFAGHLNDVDCVSFHPNGCYVFTGSSDKTCRMWDVSTGDSVRLFLGHTAPVISIAVCPDGRWLSTGSEDGIINVWDIGTGKRLKQMRGHGKNAIYSLSYSKEGNVLISGGADHTVRVWDLKKATTEPSAEPDEPFIGYLGDVTASINQDIKEYGRRRTVIPTSDLVASFYTKKTPVFKVKFSRSNLALAGGAFRP

Key:
[1] = biological target: T1, Spt7; assay: cryo-EM structure
[2] = biological target: B2; assay: cryo-EM structure
[3] = biological target: T2, Sgf73; assay: cryo-EM structure
[4] = biological target: B1; assay: cryo-EM structure
[5] = biological target: Tra1 (S. cerevisiae, UniProt P38811 1-3744); assay: affinity purification with mass spectrometry
[6] = biological target: B2; assay: affinity purification with mass spectrometry
[7] = biological target: T2, Sgf73; assay: affinity purification with mass spectrometry

Chain of Tra1 (P38811 whole entry): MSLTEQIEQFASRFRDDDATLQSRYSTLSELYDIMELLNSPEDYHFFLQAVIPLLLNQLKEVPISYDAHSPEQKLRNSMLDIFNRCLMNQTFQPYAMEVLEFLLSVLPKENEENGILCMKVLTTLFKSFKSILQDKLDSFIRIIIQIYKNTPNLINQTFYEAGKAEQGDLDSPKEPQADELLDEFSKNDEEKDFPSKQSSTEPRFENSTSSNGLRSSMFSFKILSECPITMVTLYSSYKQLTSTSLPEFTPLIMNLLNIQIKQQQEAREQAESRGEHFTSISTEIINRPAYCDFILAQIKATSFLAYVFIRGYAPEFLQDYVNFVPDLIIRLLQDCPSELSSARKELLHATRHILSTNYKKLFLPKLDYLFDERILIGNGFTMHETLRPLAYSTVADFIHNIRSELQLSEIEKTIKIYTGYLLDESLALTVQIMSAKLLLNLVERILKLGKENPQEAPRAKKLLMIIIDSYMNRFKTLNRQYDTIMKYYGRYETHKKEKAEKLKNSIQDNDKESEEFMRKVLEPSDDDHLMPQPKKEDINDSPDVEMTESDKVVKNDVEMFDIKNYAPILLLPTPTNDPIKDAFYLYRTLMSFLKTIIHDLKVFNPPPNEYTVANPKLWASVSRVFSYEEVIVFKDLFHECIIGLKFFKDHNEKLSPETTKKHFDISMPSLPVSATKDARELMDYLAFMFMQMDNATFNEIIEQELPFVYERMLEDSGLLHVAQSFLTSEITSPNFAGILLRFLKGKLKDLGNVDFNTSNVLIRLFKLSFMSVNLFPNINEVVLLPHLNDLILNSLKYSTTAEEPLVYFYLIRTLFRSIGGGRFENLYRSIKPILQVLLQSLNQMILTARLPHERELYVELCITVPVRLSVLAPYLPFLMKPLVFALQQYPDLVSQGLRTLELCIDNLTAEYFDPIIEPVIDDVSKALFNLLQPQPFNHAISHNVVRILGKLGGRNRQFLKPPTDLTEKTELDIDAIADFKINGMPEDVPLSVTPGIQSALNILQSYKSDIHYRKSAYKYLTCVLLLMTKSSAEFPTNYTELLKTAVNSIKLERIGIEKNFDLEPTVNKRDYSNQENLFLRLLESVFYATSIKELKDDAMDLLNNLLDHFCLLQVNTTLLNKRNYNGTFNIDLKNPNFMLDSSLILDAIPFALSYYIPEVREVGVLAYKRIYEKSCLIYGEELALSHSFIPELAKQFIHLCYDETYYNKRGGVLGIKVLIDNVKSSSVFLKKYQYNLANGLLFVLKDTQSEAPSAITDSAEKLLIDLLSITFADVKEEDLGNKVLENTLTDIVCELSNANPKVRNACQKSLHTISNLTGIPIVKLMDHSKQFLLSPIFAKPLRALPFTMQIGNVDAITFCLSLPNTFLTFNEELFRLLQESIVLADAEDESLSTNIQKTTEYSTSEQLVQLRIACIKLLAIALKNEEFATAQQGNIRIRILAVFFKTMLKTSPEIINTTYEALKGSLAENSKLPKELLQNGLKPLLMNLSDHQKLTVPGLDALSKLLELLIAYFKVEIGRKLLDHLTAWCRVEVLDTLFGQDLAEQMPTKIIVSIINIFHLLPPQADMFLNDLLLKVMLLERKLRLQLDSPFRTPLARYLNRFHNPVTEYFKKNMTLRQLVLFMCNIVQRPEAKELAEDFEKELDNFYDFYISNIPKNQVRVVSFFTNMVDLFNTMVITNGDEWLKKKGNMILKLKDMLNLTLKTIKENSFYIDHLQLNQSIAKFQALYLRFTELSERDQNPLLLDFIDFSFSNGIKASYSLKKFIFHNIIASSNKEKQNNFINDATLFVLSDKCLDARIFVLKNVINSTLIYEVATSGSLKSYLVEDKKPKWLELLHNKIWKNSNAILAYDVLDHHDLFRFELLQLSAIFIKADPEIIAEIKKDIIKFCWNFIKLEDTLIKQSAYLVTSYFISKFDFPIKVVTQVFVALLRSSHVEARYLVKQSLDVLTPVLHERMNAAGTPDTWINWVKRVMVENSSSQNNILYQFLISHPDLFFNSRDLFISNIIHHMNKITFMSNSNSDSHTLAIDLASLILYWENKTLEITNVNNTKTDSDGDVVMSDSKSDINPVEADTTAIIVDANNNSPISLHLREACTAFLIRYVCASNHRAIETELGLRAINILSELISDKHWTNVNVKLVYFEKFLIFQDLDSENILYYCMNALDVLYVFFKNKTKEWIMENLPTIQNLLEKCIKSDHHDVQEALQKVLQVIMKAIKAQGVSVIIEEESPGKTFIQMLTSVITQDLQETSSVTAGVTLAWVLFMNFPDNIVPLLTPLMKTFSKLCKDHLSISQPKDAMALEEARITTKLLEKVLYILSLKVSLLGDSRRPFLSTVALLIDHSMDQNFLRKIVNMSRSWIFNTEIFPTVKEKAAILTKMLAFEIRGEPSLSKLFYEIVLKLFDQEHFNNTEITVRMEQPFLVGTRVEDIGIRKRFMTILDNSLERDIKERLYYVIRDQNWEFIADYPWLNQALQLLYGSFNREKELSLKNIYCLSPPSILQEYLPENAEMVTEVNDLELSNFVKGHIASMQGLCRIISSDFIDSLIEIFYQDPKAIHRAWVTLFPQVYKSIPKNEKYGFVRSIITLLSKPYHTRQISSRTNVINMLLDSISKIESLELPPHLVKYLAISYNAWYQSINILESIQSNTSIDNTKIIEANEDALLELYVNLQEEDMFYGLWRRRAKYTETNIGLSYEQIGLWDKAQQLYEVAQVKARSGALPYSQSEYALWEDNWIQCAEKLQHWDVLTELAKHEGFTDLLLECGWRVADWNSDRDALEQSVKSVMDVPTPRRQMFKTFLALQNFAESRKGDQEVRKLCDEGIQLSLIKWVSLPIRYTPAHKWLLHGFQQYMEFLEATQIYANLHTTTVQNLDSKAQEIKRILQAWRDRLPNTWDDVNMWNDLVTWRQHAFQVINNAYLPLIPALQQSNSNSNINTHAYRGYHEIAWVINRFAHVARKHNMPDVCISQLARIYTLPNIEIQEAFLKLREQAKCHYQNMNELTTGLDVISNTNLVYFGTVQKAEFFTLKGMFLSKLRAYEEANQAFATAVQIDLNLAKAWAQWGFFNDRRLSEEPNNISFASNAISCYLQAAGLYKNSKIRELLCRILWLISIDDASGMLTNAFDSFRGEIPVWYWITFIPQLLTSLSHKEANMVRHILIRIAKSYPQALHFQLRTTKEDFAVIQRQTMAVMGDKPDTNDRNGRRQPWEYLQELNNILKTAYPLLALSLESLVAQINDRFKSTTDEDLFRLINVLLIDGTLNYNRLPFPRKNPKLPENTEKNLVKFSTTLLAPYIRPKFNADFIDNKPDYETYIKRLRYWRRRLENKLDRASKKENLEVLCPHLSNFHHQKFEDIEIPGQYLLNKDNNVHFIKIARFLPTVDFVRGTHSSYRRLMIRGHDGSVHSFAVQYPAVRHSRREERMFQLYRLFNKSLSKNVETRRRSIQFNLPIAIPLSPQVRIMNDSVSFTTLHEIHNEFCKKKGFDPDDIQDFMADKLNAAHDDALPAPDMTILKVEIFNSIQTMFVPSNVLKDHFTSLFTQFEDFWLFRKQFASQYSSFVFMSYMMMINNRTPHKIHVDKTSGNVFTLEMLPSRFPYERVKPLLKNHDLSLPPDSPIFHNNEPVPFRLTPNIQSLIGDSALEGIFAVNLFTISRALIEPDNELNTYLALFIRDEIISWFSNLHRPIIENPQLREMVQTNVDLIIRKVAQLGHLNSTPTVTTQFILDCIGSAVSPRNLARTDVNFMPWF

binding result [1]	binding result [2]	binding result [3]	Binder	further results
binds	binds	binds	B1	
binds	binds		Taf10 (natural protein) MDFEEDYDAEFDDNQEGQLETPFPSVAGADDGDNDNDDSVAENMKKKQKREAVVDDGSENAFGIPEFTRKDKTLEEILEMMDSTPPIIPDAVIDYYLTKNGFNVADVRVKRLLALATQKFVSDIAKDAYEYSRIRSSVAVSNANNSQARARQLLQGQQQPGVQQISQQQHQQNEKTTASKVVLTVNDLSSAVAEYGLNIGRPDFYR	
binds			B2	
	binds	binds	Taf9 (natural protein) MNGGGKNVLNKNSVGSVSEVGPDSTQEETPRDVRLLHLLLASQSIHQYEDQVPLQLMDFAHRYTQGVLKDALVYNDYAGSGNSAGSGLGVEDIRLAIAARTQYQFKPTAPKELMLQLAAERNKKALPQVMGTWGVRLPPEKYCLTAKEWDLEDPKSM	binding result [4]: binds
			Spt20 (natural protein) MSANSPTGNDPHVFGIPVNATPSNMGSPGSPVNVPPPMNPAVANVNHPVMRTNSNSNANEGTRTLTREQIQQLQQRQRLLLQQRLLEQQRKQQALQNYEAQFYQMLMTLNKRPKRLYNFVEDADSILKKYEQYLHSFEFHIYENNYKICAPANSRLQQQQKQPELTSDGLILTKNNETLKEFLEYVARGRIPDAIMEVLRDCNIQFYEGNLILQVYDHTNTVDVTPKENKPNLNSSSSPSNNNSTQDNSKIQQPSEPNSGVANTGANTANKKASFKRPRVYRTLLKPNDLTTYYDMMSYADNARFSDSIYQQFESEILTLTKRNLSLSVPLNPYEHRDMLEETAFSEPHWDSEKKSFIHEHRAESTREGTKGVVGHIEERDEFPQHSSNYEQLMLIMNERTTTITNSTFAVSLTKNAMEIASSSSNGVRGASSSTSNSASNTRNNSLANGNQVALAAAAAAAAVGSTMGNDNNQFSRLKFIEQWRINKEKRKQQALSANINPTPFNARISMTAPLTPQQQLLQRQQQALEQQQNGGAMKNANKRSGNNATSNNNNNNNNLDKPKVKRPRKNAKKSESGTPAPKKKRMTKKKQSASSTPSSTTMS	binding result [5]: binds; binding result [6]: binds; binding result [7]: binds
